Patent publication CN113929781A (MABWELL SHANGHAI BIOTECHNOLOGY CO LTD; JIANGSU MAIWEIKANG …, dated 2022)

Assays:
人PD-1-hFc [1] = target: T1, 人PD-1-hFc (human, UniProt Q15116 21-167); experiment: competition ELISA, PD-1-hFc coated, competitor PD-L1-mFc at 1 μg/mL
T1 construct: range 21-167; also called 重组人PD-1; Lot 20180329; not shown: human Fc (hFc)

人PD-1-hFc [2] = target: T1, 人PD-1-hFc; experiment: competition ELISA, PD-1-hFc coated, competitor PD-L2-hFc-Biotin at 2 μg/mL

T1 sequence (Q15116 21-167 limits assumed, form in doubt): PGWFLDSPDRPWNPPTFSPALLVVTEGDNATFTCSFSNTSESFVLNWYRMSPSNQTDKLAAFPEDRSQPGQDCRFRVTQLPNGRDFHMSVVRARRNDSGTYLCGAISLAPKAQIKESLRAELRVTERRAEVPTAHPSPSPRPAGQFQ

B1: h317 (antibody, V domains shown)
VH: EVQLVESGGGLVKPGGSLRLSCAASGFTFSSYDMSWVRQAPGKGLEWVATISGGGSYTYYPDSVKGRFTISRDNAKNSLYLQMNSLRAEDTAVYYCASPDSSGVAYWGQGTLVTVSS
VL: DIVMTQSPLSLPVTPGEPASITCKASQDVETVVAWYLQKPGQSPRLLIYWASTRHTGVPDRFSGSGSGTDFTLKISRVEAEDVGVYYCQQYSRYPWTFGQGTKL
IC50 (人PD-1-hFc [1]): 1.4 nM
IC50 (人PD-1-hFc [2]): 1.2 nM
